Source: KR20150077887A (dated 2015)

Molecular target: T1, NRS natively expressed in human cells (HeLa cell lysate) (human, UniProt O43776 1-548)
T1 construct: mature; Target of the western blot; also called human 세포에서 원래 발현된 NRS
T1 sequence (looked up): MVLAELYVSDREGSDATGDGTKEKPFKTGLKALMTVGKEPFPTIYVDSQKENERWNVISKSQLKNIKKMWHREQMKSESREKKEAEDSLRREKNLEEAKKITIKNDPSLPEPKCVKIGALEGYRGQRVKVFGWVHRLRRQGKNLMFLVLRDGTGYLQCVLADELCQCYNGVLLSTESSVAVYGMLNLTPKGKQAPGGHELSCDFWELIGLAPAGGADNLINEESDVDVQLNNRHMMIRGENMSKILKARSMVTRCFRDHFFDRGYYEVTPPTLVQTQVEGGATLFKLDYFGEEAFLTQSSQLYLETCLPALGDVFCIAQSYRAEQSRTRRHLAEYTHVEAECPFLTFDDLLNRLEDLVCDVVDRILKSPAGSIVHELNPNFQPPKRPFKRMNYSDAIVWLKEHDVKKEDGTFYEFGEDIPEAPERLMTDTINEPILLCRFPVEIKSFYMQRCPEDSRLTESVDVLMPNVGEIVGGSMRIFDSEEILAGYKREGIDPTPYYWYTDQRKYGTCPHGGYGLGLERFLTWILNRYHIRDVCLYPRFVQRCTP
Assay: western blot on HeLa cell lysate with periplasmic scFv (clones from phage panning on NRS), anti-HA-HRP detection

B1: SEQ ID NO 70 (scFv)
scFv: EVQLLESGGGLVQTGGSLRLSCAASGFTFSDYAMSWVRQAPGKGLEWVSGISYSGGSTYYADSVKGRFTISRDNSKNTLYLQMNSLRAEDTAVYYCAKNSRHFDYWGQGTLVTVSSGGGGSGGGGSGGGGSQSVLTQPPSASGTPGQRVTISCSGSSSNIGSNDVTWYQQLPGTAPKLLIYSNSHRPSGVPDRFSGSKSGTSASLAISGLRSEDEADYYCGAWDDSLNGYVFGGGTKLTVL
notes: It is probably the same molecule as one of Biocon-N1 to N5
Question: Does B1 bind?
Answer: binds

B2: SEQ ID NO 42 (scFv)
scFv: EVQLLESGGGLVQPGGSLRLSCAASGFTFSNYSMSWVRQAPGKGLEWVSVISPGSGSKYYADSVKGRFTISRDNSKNTLYLQMNSLRAEDTAVYYCARTATIFDYWGQGTLVTVSSGGGGSGGGGSGGGGSQSVLTQPPSASGTPGQRVTISCTGSSSNIGSNYVSWYQQLPGTAPKLLIYADSQRPSGVPDRFSGSKSGTSASLAISGLRSEDEADYYCGTWDDSLSAYVFGGGTKLTVL
notes: as for B1
Question: Does B2 bind?
Answer: binds
